This note sets out measurements from the supplement of paper PMC10724198.

The test system of data set [1] is Saccharomyces cerevisiae. As to the kind of experiment: protein stability index of tFT-peptide fusion (C-terminal peptide) (PSI (0-1 scale)); higher = more stable (slower turnover). The settings on record: genetic background: wild type; temperature: 30 C.
Data set [2] deals with Saccharomyces cerevisiae. The description is as above. As to the method:
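MPS profiling in S. cerevisiae of the tFT-X12 degron library: putative degron peptides plus stable controls, 12 aa, fused to the C-terminus of a sfGFP-mCherry timer. Cells are FACS-sorted into 8 mCherry/sfGFP bins and deep-sequenced. PSI runs from 0 (unstable) to 1 (stable). Backgrounds are wild type, das1Δ and doa10Δ at 30 °C, and wild type, das1Δ, cdc34-1 and cdc53-1 at 37 °C; 2-3 technical replicates each.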

The mark [3] stands for this setting: genetic background: cdc34-1, temperature: 37 C.
[4] abbreviates: genetic background: cdc53-1, temperature: 37 C.
[5] abbreviates: genetic background: das1 deletion, temperature: 30 C.
Setting [6] is: genetic background: das1 deletion, temperature: 37 C.
Setting [7] is: genetic background: doa10 deletion, temperature: 30 C.
Setting [8] is: genetic background: wild type, temperature: 30 C.
The mark [9] stands for this setting: genetic background: wild type, temperature: 37 C.

± gives the standard deviation of the averaged measurements.
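Note: PSI is a weighted mean of sequencing reads over stability bins, variants kept only with over 10 reads, mCherry proximal and sfGFP distal, peptide attached via GGGS linker.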

On to ACFLFPSHLLIS, for which the protein stability index in the data set on Saccharomyces cerevisiae [1] is 0.305 ± 0.0099; in the data set with Saccharomyces cerevisiae [2] (setting [3]) it was 0.584 ± 0.021; in the data set with Saccharomyces cerevisiae [2] (setting [4]), 0.689 ± 0.0086; in the data set on Saccharomyces cerevisiae [2] (setting [5]), 0.541 ± 0.02; in the data set on Saccharomyces cerevisiae [2] (setting [6]) it was 0.699 ± 0.021; in the data set on Saccharomyces cerevisiae [2] (setting [7]) it was 0.165 ± 0.023. In addition, the protein stability index with Saccharomyces cerevisiae [2] (setting [8]) worked out at 0.181 ± 0.011; in the data set with Saccharomyces cerevisiae [2] (setting [9]) it was 0.3022 ± 0.0017.
For the sequence AFCGRRGHQFYN, the protein stability index with Saccharomyces cerevisiae [1] turned out to be 0.263 ± 0.061; in the data set on Saccharomyces cerevisiae [2] (setting [3]), 0.61 ± 0.0073; with Saccharomyces cerevisiae [2] (setting [4]) it was 0.743 ± 0.016; in the data set with Saccharomyces cerevisiae [2] (setting [5]), 0.648 ± 0.018; with Saccharomyces cerevisiae [2] (setting [6]), 0.746 ± 0.037; in the data set with Saccharomyces cerevisiae [2] (setting [7]), 0.144 ± 0.0093. Also, the protein stability index in the data set on Saccharomyces cerevisiae [2] (setting [8]) was 0.164 ± 0.014; with Saccharomyces cerevisiae [2] (setting [9]), 0.42 ± 0.027.
AFRFFWFFFFTS: the protein stability index in the data set on Saccharomyces cerevisiae [1] is 0.445 ± 0.03; in the data set with Saccharomyces cerevisiae [2] (setting [3]), 0.536 ± 0.066; in the data set with Saccharomyces cerevisiae [2] (setting [4]) it was 0.619 ± 0.042; in the data set on Saccharomyces cerevisiae [2] (setting [5]) it was 0.466 ± 0.024; with Saccharomyces cerevisiae [2] (setting [6]) it was 0.603 ± 0.035; in the data set with Saccharomyces cerevisiae [2] (setting [7]), 0.446 ± 0.0062. In addition, the protein stability index turned out to be 0.426 ± 0.017 in the data set on Saccharomyces cerevisiae [2] (setting [8]) and 0.557 ± 0.018 in the data set on Saccharomyces cerevisiae [2] (setting [9]).
Take AFSISPFRLRMV: the protein stability index was 0.418 ± 0.017 in the data set with Saccharomyces cerevisiae [1]; 0.642 ± 0.026 in the data set on Saccharomyces cerevisiae [2] (setting [3]); 0.753 ± 0.025 in the data set on Saccharomyces cerevisiae [2] (setting [4]); 0.649 ± 0.013 in the data set with Saccharomyces cerevisiae [2] (setting [5]); 0.746 ± 0.03 in the data set with Saccharomyces cerevisiae [2] (setting [6]); 0.249 ± 0.0032 with Saccharomyces cerevisiae [2] (setting [7]). The results for the protein stability index with Saccharomyces cerevisiae [2] (setting [8]) and in the data set with Saccharomyces cerevisiae [2] (setting [9]) were 0.293 ± 0.022 and 0.541 ± 0.0024, respectively.
Regarding AFWLFSGIARLA, the protein stability index was 0.407 ± 0.041 in the data set with Saccharomyces cerevisiae [1]; 0.568 ± 0.011 in the data set with Saccharomyces cerevisiae [2] (setting [3]); 0.66 ± 0.023 in the data set on Saccharomyces cerevisiae [2] (setting [4]); 0.472 ± 0.014 with Saccharomyces cerevisiae [2] (setting [5]); 0.642 ± 0.024 with Saccharomyces cerevisiae [2] (setting [6]); 0.221 ± 0.014 with Saccharomyces cerevisiae [2] (setting [7]). In addition, the figures for the protein stability index in the data set on Saccharomyces cerevisiae [2] (setting [8]) and in the data set with Saccharomyces cerevisiae [2] (setting [9]) were 0.277 ± 0.011 and 0.5014 ± 0.0035, respectively.
For AGESLRAIAVLY, the protein stability index in the data set on Saccharomyces cerevisiae [1] was 0.42 ± 0.018; with Saccharomyces cerevisiae [2] (setting [3]) it was 0.647 ± 0.06; with Saccharomyces cerevisiae [2] (setting [4]), 0.715 ± 0.025; in the data set on Saccharomyces cerevisiae [2] (setting [5]), 0.588 ± 0.0077; in the data set on Saccharomyces cerevisiae [2] (setting [6]) it was 0.6605 ± 0.004; with Saccharomyces cerevisiae [2] (setting [7]), 0.258 ± 0.016. In addition, the values for the protein stability index in the data set with Saccharomyces cerevisiae [2] (setting [8]) and in the data set with Saccharomyces cerevisiae [2] (setting [9]) were 0.292 ± 0.018 and 0.47738 ± 0.00044, respectively.
On to AGLTLLWPLCLL, for which the protein stability index stood at 0.3669 ± 0.0023 in the data set on Saccharomyces cerevisiae [1]; 0.28 ± 0.0058 with Saccharomyces cerevisiae [2] (setting [3]); 0.261 ± 0.0053 with Saccharomyces cerevisiae [2] (setting [4]); 0.277 ± 0.022 in the data set on Saccharomyces cerevisiae [2] (setting [5]); 0.394 ± 0.013 with Saccharomyces cerevisiae [2] (setting [6]); 0.591 ± 0.01 with Saccharomyces cerevisiae [2] (setting [7]). Moreover, the protein stability index in the data set on Saccharomyces cerevisiae [2] (setting [8]) came out at 0.265 ± 0.034; with Saccharomyces cerevisiae [2] (setting [9]), 0.353 ± 0.013.
On to AGTLLLGYGILA, for which the protein stability index amounted to 0.43845 ± 0.00034 in the data set with Saccharomyces cerevisiae [1]; 0.454 ± 0.019 in the data set with Saccharomyces cerevisiae [2] (setting [3]); 0.464 ± 0.038 in the data set on Saccharomyces cerevisiae [2] (setting [4]); 0.342 ± 0.023 in the data set on Saccharomyces cerevisiae [2] (setting [5]); 0.5107 ± 0.00054 with Saccharomyces cerevisiae [2] (setting [6]); 0.309 ± 0.017 in the data set on Saccharomyces cerevisiae [2] (setting [7]). Also, the values for the protein stability index with Saccharomyces cerevisiae [2] (setting [8]) and in the data set on Saccharomyces cerevisiae [2] (setting [9]) were 0.349 ± 0.023 and 0.486 ± 0.0055, respectively.
Regarding AGVRCPLFWLVC, the protein stability index in the data set with Saccharomyces cerevisiae [1] was found to be 0.156 ± 0.0027; with Saccharomyces cerevisiae [2] (setting [3]), 0.461 ± 0.049; in the data set with Saccharomyces cerevisiae [2] (setting [4]), 0.622 ± 0.032; with Saccharomyces cerevisiae [2] (setting [5]) it was 0.498 ± 0.033; with Saccharomyces cerevisiae [2] (setting [6]) it was 0.632 ± 0.013; in the data set with Saccharomyces cerevisiae [2] (setting [7]) it was 0.131 ± 0.012. Also, the figures for the protein stability index in the data set with Saccharomyces cerevisiae [2] (setting [8]) and in the data set on Saccharomyces cerevisiae [2] (setting [9]) were 0.138 ± 0.0075 and 0.148 ± 0.01, respectively.
As for AHPTLILTNKIA, the protein stability index in the data set with Saccharomyces cerevisiae [1] was found to be 0.237 ± 0.0044; with Saccharomyces cerevisiae [2] (setting [3]) it was 0.578 ± 0.13; in the data set on Saccharomyces cerevisiae [2] (setting [4]) it was 0.705 ± 0.063; with Saccharomyces cerevisiae [2] (setting [5]) it was 0.643 ± 0.025; with Saccharomyces cerevisiae [2] (setting [6]), 0.712 ± 0.044; in the data set on Saccharomyces cerevisiae [2] (setting [7]), 0.0637 ± 0.025. Also, the values for the protein stability index in the data set with Saccharomyces cerevisiae [2] (setting [8]) and in the data set with Saccharomyces cerevisiae [2] (setting [9]) were 0.104 ± 0.044 and 0.121 ± 0.023, respectively.
Take ALLIYFLCRCIP: the protein stability index with Saccharomyces cerevisiae [1] was determined as 0.44 ± 0.034; with Saccharomyces cerevisiae [2] (setting [3]) it was 0.4326 ± 0.00094; in the data set with Saccharomyces cerevisiae [2] (setting [4]), 0.476 ± 0.011; with Saccharomyces cerevisiae [2] (setting [5]), 0.343 ± 0.033; in the data set on Saccharomyces cerevisiae [2] (setting [6]), 0.522 ± 0.016; in the data set on Saccharomyces cerevisiae [2] (setting [7]), 0.301 ± 0.015. The protein stability index in the data set on Saccharomyces cerevisiae [2] (setting [8]) stood at 0.33 ± 0.035; with Saccharomyces cerevisiae [2] (setting [9]), 0.483 ± 0.032.
With APLFPPPPARSL, the protein stability index in the data set on Saccharomyces cerevisiae [2] (setting [3]) is 0.652 ± 0.034; in the data set on Saccharomyces cerevisiae [2] (setting [4]), 0.7023 ± 0.0017; with Saccharomyces cerevisiae [2] (setting [5]), 0.661 ± 0.014; with Saccharomyces cerevisiae [2] (setting [6]) it was 0.704 ± 0.011; in the data set with Saccharomyces cerevisiae [2] (setting [7]) it was 0.692 ± 0.017; in the data set with Saccharomyces cerevisiae [2] (setting [8]), 0.677 ± 0.03. Also, the protein stability index in the data set with Saccharomyces cerevisiae [2] (setting [9]) was found to be 0.688 ± 0.041.
ARRFLVRRFILF: the protein stability index in the data set on Saccharomyces cerevisiae [1] worked out at 0.282 ± 0.0087; in the data set on Saccharomyces cerevisiae [2] (setting [3]), 0.545 ± 0.019; in the data set on Saccharomyces cerevisiae [2] (setting [4]) it was 0.65822 ± 0.00018; in the data set on Saccharomyces cerevisiae [2] (setting [5]), 0.586 ± 0.0066; in the data set on Saccharomyces cerevisiae [2] (setting [6]), 0.683 ± 0.026; with Saccharomyces cerevisiae [2] (setting [7]), 0.187 ± 0.018. Further, the protein stability index amounted to 0.189 ± 0.021 with Saccharomyces cerevisiae [2] (setting [8]) and 0.326 ± 0.033 in the data set on Saccharomyces cerevisiae [2] (setting [9]).
Consider ASHLGLGCLVVC, for which the protein stability index in the data set with Saccharomyces cerevisiae [1] was found to be 0.491 ± 0.0059; in the data set with Saccharomyces cerevisiae [2] (setting [3]), 0.601 ± 0.089; in the data set on Saccharomyces cerevisiae [2] (setting [4]), 0.571 ± 0.045; in the data set with Saccharomyces cerevisiae [2] (setting [5]), 0.426 ± 0.018; in the data set on Saccharomyces cerevisiae [2] (setting [6]), 0.604 ± 0.015; in the data set with Saccharomyces cerevisiae [2] (setting [7]) it was 0.389 ± 0.028. Besides, the protein stability index in the data set on Saccharomyces cerevisiae [2] (setting [8]) is 0.408 ± 0.02; in the data set on Saccharomyces cerevisiae [2] (setting [9]), 0.579 ± 0.021.
Regarding AVRLPFPLLVHL, the protein stability index in the data set on Saccharomyces cerevisiae [1] was 0.473 ± 0.028; in the data set with Saccharomyces cerevisiae [2] (setting [3]), 0.205 ± 0.012; with Saccharomyces cerevisiae [2] (setting [4]) it was 0.195 ± 0.0033; with Saccharomyces cerevisiae [2] (setting [5]), 0.283 ± 0.031; with Saccharomyces cerevisiae [2] (setting [6]), 0.386 ± 0.0046; with Saccharomyces cerevisiae [2] (setting [7]), 0.427 ± 0.016. Besides, the protein stability index with Saccharomyces cerevisiae [2] (setting [8]) is 0.276 ± 0.053; in the data set with Saccharomyces cerevisiae [2] (setting [9]) it was 0.337 ± 0.029.
For the sequence AVVCSRLVLFCL, the protein stability index with Saccharomyces cerevisiae [1] came out at 0.512 ± 0.026; with Saccharomyces cerevisiae [2] (setting [3]), 0.591 ± 0.042; in the data set with Saccharomyces cerevisiae [2] (setting [4]), 0.609 ± 0.021; with Saccharomyces cerevisiae [2] (setting [5]), 0.53 ± 0.016; in the data set with Saccharomyces cerevisiae [2] (setting [6]) it was 0.6322 ± 0.0018; with Saccharomyces cerevisiae [2] (setting [7]), 0.433 ± 0.018. The protein stability index in the data set with Saccharomyces cerevisiae [2] (setting [8]) turned out to be 0.446 ± 0.025; with Saccharomyces cerevisiae [2] (setting [9]), 0.588 ± 0.021.
For the sequence AYSVIPSLALLP, the protein stability index in the data set on Saccharomyces cerevisiae [2] (setting [3]) amounted to 0.681 ± 0.062; with Saccharomyces cerevisiae [2] (setting [4]), 0.741 ± 0.008; in the data set on Saccharomyces cerevisiae [2] (setting [5]), 0.631 ± 0.024; with Saccharomyces cerevisiae [2] (setting [6]), 0.731 ± 0.0022; in the data set on Saccharomyces cerevisiae [2] (setting [7]) it was 0.646 ± 0.018; in the data set on Saccharomyces cerevisiae [2] (setting [8]) it was 0.632 ± 0.01. In the data set on Saccharomyces cerevisiae [2] (setting [9]), this sequence yielded a protein stability index of 0.706 ± 0.0094.
